The values below come from article PMC5542437, “Assembly and stoichiometry of the core structure of the bacterial flagellar type III export gate complex” (PLoS Biology, 2017).

Numbering of substitutions follows the chain as printed. Names and notes keep the numbering of the source.

One may read the stoichiometry N as a count of units in the complex or per binding partner.

Data set [1] concerns the molecule itself. Briefly: crystal structure; Tm-FliPP, 2.4 Å, SAD phasing with a Se-Met derivative; 2 tetramers in the asymmetric unit.
Data set [2] deals with the molecule itself. Briefly: SEC; Ni-purified His-FliP or FliO/His-FliP complexes (wild type and mutants) on Superdex 200 10/300; 20 mM Tris-HCl pH 8.0, 300 mM NaCl, 2 mM EDTA, 5% glycerol, 0.1% DDM. In general terms: Size exclusion chromatography separates by hydrodynamic size, large species first.
Data set [3] concerns the target T1, His-St-FliP (Salmonella FliP with a hexahistidine tag inserted between Gln-22 and Leu-23) (Salmonella enterica, UniProt P54700 22-245).
T1 construct: FliP, Salmonella enterica, 25-kDa transmembrane protein; mature form studied; the signal peptide (Met-1 to Gln-22) is cleaved during membrane insertion; tag LHHHHHH inserted between Gln-22 and Leu-23; Hexameric ring in SEC peak 2; also called His-FliP; FliP6 ring; source: Salmonella SJW1368, membranes solubilised with 1% DDM or 1% LMNG; purified (Ni-NTA, SEC); not shown: His6 (LHHHHHH), internal …
T1 sequence: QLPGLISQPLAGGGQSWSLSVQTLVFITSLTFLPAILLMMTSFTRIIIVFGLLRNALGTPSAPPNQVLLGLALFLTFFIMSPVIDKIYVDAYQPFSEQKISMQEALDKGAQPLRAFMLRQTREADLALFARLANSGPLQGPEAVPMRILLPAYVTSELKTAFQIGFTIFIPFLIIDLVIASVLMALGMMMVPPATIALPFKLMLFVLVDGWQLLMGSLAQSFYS
The experiment in a line: pull-down; copurification from Salmonella SJW1368 co-expressing His-FliP with other export gate proteins; membranes solubilised with 1% DDM; Ni affinity, then anti-FLAG M2 affinity (eluted with FLAG peptide), then SEC on Superdex 200 10/300; SDS-PAGE with CBB. As to conditions: partners not purified.

B1: Tm-FliPP (periplasmic domain of FliP of Thermotoga maritima) (domain or fragment)
chain: YNNAITPYLNKETGYQEMFQRVNTRIREFMINELKNHHNEDNVFMLAKNSGIEIAKIEEAPNAVLIPAFVLGELEVAFK
notes: FliP of Thermotoga maritima (printed 'T. maritia'), periplasmic domain between TM-2 and TM-3; the atomic model holds Thr-122 to Lys-188; the N-terminal 13 residues of the construct are invisible; also called FliPP of T. maritia; Tm-FliPP tetramer; source: expression and purification described previously [37]
In the case of B1, the “stoichiometry N” value in data set [1] stood at 4.

B2: His-FliP(F137A) (natural protein)
chain: T1 sequence with F116A
notes: FliP, Salmonella enterica; mature form; signal peptide (Met-1 to Gln-22) cleaved; His tag inserted between Gln-22 and Leu-23; source: Salmonella SJW1368, co-expressed with FliO, DDM-solubilised membranes; purified (Ni-NTA, SEC); not shown: His6 (LHHHHHH), internal (after residue 22), kept
B2: the “stoichiometry N” value in data set [2] stood at 2.

B3: His-FliP(E178A) (natural protein)
chain: T1 sequence with E157A
notes: as for B2
In the case of B3, the “stoichiometry N” value in data set [2] stood at 2.

B4: His-FliP(F150A) (natural protein)
chain: T1 sequence with F129A
notes: FliP, Salmonella enterica; mature form; signal peptide (Met-1 to Gln-22) cleaved; His tag inserted between Gln-22 and Leu-23; also called His-FliP(F1507A) [sic]; source: Salmonella SJW1368, co-expressed with FliO, DDM-solubilised membranes; purified (Ni-NTA, SEC); not shown: His6 (LHHHHHH), internal (after residue 22), kept
For the molecule B4, the “stoichiometry N” value in data set [2] turned out to be 2.

B5: FlhB (natural protein)
chain: MAEESDDDKTEAPTPHRLEKAREEGQIPRSRELTSLLILLVGVCIIWFGGESLARQLAGMLSAGLHFDHRMVNDPNLILGQIILLIKAAMMALLPLIAGVVLVALISPVMLGGLIFSGKSLQPKFSKLNPLPGIKRMFSAQTGAELLKAVLKSTLVGCVTGFYLWHHWPQMMRLMAESPIVAMGNALDLVGLCALLVVLGVIPMVGFDVFFQIFSHLKKLRMSRQDIRDEFKESEGDPHVKGKIRQMQRAAAQRRMMEDVPKADVIVTNPTHYSVALQYDENKMSAPKVVAKGAGLIALRIREIGAEHRVPTLEAPPLARALYRHAEIGQQIPGQLYAAVAEVLAWVWQLKRWRLAGGQRPPQPENLPVPEALDFMNEKNTDG
notes: FlhB, Salmonella enterica, transmembrane export gate protein; its C-terminal cytoplasmic domain undergoes autocleavage between Asp-269 and Pro270 as printed; source: Salmonella SJW1368, pTrc99A-based plasmid, in DDM- or LMNG-solubilised membranes; co-purified
As to B5, the “stoichiometry N” value in data set [3] was ~2 copies of FlhB per 6 copies of FliP.

B6: FliR-FLAG (natural protein)
chain: MIQVTSEQWLYWLHLYFWPLLRVLALISTAPILSERAIPKRVKLGLGIMITLVIAPSLPANDTPLFSIAALWLAMQQILIGIALGFTMQFAFAAVRTAGEFIGLQMGLSFATFVDPGSHLNMPVLARIMDMLAMLLFLTFNGHLWLISLLVDTFHTLPIGSNPVNSNAFMALARAGGLIFLNGLMLALPVITLLLTLNLALGLLNRMAPQLSIFVIGFPLTLTVGIMLMAALMPLIAPFCEHLFSEIFNLLADIVSEMPINNNP
notes: FliR, Salmonella enterica, transmembrane export gate protein; also called FLAG-FliR (as printed in the methods); source: Salmonella SJW1368, pTrc99A-based plasmid, in DDM- or LMNG-solubilised membranes; co-purified (Ni-NTA, anti-FLAG gel, SEC)
Take B6: in data set [3], the “stoichiometry N” value was ~2 copies of FliR per 6 copies of FliP.
